Measured values as given in US20020081570A1, “System to detect protein-protein interactions” (priority 2000, published 2002).

Target: T1, syntaxin 1A (Homo sapiens, UniProt Q16623)
T1 construct: expressed in transfected cells; host or cells: yeast (two-hybrid; cotransformations and yeast matings)
Assay: yeast two-hybrid screen (cotransformations and yeast matings)
Type: binding
Details: yeast two hybrid system
Excerpt: The present inventors completed a yeast two-hybrid screen using Syt 1, syntaxin 1A and synaptobrevin 2 (Vamp 2). Recombinant and native Syt-1 and syntaxin 1A were shown previously to interact in a calcium dependent manner. […] Screens performed using two different approaches—cotransformations and yeast matings—gave identical findings.

T1 sequence (Q16623 whole entry, species assumed): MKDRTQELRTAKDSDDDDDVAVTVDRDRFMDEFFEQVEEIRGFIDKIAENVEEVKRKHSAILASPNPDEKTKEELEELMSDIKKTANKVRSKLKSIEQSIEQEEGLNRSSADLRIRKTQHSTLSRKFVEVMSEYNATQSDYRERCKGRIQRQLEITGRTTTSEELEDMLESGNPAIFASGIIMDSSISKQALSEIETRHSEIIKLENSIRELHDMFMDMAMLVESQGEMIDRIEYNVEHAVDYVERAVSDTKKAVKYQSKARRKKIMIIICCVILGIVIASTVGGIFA

| Substance | direct interaction with syntaxin 1A |
| --- | --- |
| Syt-1: synaptotagmin I protein used in yeast two-hybrid screen | did not |
| synaptobrevin: synaptobrevin 2 (Vamp 2) protein used in yeast two-hybrid screen | interact directly |
